Experiment [1] deals with IPF mice (C57BL/6 mice treated with BLM). The experiment in a line: Lung fibrosis in bleomycin (BLM) mice, Masson's trichrome staining. The note with it: BLM 1.5 U/head; 2 weeks; conjugate 3.9 nmol/kg Q2D subcutaneous; pirfenidone 300 mg/kg QD oral; ambroxol 45 mg/kg BID peritoneal; FIG. 5. Format: in vivo. Here is the method: In order to confirm the in vivo efficacy of the long-acting conjugate of the triple agonist prepared in the above Examples for improving pulmonary fibrosis, particularly idiopathic pulmonary fibrosis (IPF), which is a representative pulmonary fibrosis, bleomycin (BLM) mice were used. It is known that, when bleomycin is administered intratracheally, the epithelial-mesenchymal transition occurs by damaging DNA of alveolar epithelial cells, which induces idiopathic fibrosis. In addition, it is known that when the BLM treatment dose is increased above a certain level, the survival rate of the mice is reduced due to severe lung damage caused by idiopathic fibrosis. […]
IPF mice prepared by treating C57BL/6 mice (ORIENT Bio, Busan, Korea) with BLM at 1.5 U/head were divided into an excipient control group, a long-acting conjugate of triple agonist administration group (3.9 nmol/kg, Q2D, subcutaneous), a pirfenidone administration group (300 mg/kg, QD, oral), and an ambroxol administration group (45 mg/kg, BID, peritoneal), repeated administration was performed for 2 weeks. After 2 weeks of repeated administration, lung tissue of each mouse was taken by autopsy, and the degree of fibrosis in the lung tissue was evaluated by Masson's trichrome staining. Statistical treatment evaluated the efficacy of the long-acting conjugate of the triple agonist using one-way ANOVA (*-***p<0.05-0.001).

The target in a further experiment is human GCG receptor (human, UniProt P47871 26-477). The experiment in a line: cell-based or functional assay.
human GCG receptor, sequence (P47871 26-477): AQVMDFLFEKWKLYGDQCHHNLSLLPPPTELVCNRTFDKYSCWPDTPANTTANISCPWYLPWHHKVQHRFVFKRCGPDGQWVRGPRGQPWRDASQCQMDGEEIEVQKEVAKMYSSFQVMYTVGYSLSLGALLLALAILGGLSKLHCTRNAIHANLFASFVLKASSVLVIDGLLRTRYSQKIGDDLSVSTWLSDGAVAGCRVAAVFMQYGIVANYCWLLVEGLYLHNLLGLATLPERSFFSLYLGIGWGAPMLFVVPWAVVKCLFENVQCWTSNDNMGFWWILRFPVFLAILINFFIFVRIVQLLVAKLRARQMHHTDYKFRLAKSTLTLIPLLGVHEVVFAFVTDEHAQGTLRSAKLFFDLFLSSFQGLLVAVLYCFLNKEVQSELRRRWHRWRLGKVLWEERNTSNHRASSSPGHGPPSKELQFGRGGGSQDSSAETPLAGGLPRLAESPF
Another experiment has as its target T1, human GIP receptor (human, UniProt P48546 22-466).
T1 sequence (looked up): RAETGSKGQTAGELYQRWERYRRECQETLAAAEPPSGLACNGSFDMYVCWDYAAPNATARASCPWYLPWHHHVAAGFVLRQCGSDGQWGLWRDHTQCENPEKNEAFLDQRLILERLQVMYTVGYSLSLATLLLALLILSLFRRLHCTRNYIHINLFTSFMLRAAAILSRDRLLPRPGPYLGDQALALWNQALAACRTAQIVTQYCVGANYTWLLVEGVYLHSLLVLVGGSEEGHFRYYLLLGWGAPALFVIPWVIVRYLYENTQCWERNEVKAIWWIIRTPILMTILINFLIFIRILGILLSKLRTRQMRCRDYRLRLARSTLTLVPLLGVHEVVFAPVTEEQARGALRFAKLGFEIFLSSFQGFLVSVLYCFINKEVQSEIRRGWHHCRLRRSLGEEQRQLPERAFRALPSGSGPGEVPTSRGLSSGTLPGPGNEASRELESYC
Put plainly: cell-based or functional assay.

The next experiment has as its target human GLP-1 receptor (human, UniProt P43220 24-463). Put plainly: cell-based or functional assay.

Positions of bridges follow the written chain, without caps; N, C: chain ends. Non-standard residues stand in square brackets, D forms with d. No end group written: not given here. Aib = CC(C)(N)C(=O)O

Take `Nc1c(Br)cc(Br)cc1CN[C@H]1CC[C@H](O)CC1` [ambroxol, reference compound]: the “positive area of Masson's trichrome staining in the lung tissue (degree of fibrosis)” value in experiment [1] is “same level of efficacy as the long-acting conjugate of the triple agonist”.

B1: triple agonist of SEQ ID NO: 32 (peptide)
peptide: H[Aib]QGTFTSDYSKYLDEKACKDFVQWLLDGGPSSGAPPPS
modifications: bridge 16-20; also: ring type not given here
As to B1, the “In vitro Activity Compared to Native Peptide (%) vs. Glucagon” value with human GCG receptor is 1.7%. The “In vitro Activity Compared to Native Peptide (%) vs. GIP” value in the experiment with human GIP receptor amounted to 8.8%. Also, the “In vitro Activity Compared to Native Peptide (%) vs. GLP-1” value with human GLP-1 receptor amounted to 151%.

B2: triple agonist of SEQ ID NO: 31 (peptide)
peptide: H[Aib]QGTFTSDYSKYLDEKACKEFVQWLLAQ
modifications: bridge 16-20
Regarding B2, in the experiment with human GCG receptor, the “In vitro Activity Compared to Native Peptide (%) vs. Glucagon” value worked out at 2.2%. Moreover, the “In vitro Activity Compared to Native Peptide (%) vs. GIP” value in the experiment with human GIP receptor worked out at 2.4%. The “In vitro Activity Compared to Native Peptide (%) vs. GLP-1” value in the experiment with human GLP-1 receptor is 135%.

B3: triple agonist of SEQ ID NO: 26 (peptide)
peptide: H[Aib]QGTFTSDCSKYLDSRAAQDFVQWLLDGGPSSGAPPPS
Turning to B3, the “In vitro Activity Compared to Native Peptide (%) vs. Glucagon” value with human GCG receptor is 0.2%. For the same molecule, the “In vitro Activity Compared to Native Peptide (%) vs. GIP” value with human GIP receptor was less than 0.1%. In the experiment with human GLP-1 receptor, the “In vitro Activity Compared to Native Peptide (%) vs. GLP-1” value is 64.5%.

B4: triple agonist of SEQ ID NO: 29 (peptide)
peptide: H[Aib]QGTFTSDYSKYLDEKAAKEFVQWLLNTC
modifications: bridge 16-20
In the case of B4, in the experiment with human GCG receptor, the “In vitro Activity Compared to Native Peptide (%) vs. Glucagon” value came to 6%. Also, in the experiment with human GIP receptor, the “In vitro Activity Compared to Native Peptide (%) vs. GIP” value was less than 0.1%. Further, the “In vitro Activity Compared to Native Peptide (%) vs. GLP-1” value with human GLP-1 receptor came out at 38.5%.

B5: triple agonist of SEQ ID NO: 27 (peptide)
peptide: H[Aib]QGTFTSDYSKYLDERACQDFVQWLLDQGGPSSGAPPPS
For B5, in the experiment with human GCG receptor, the “In vitro Activity Compared to Native Peptide (%) vs. Glucagon” value came to 0.8%. In the experiment with human GIP receptor, the “In vitro Activity Compared to Native Peptide (%) vs. GIP” value was 0.9%. The “In vitro Activity Compared to Native Peptide (%) vs. GLP-1” value in the experiment with human GLP-1 receptor turned out to be 83.1%.

B6: triple agonist of SEQ ID NO: 33 (peptide)
peptide: H[Aib]QGTFTSDYSIAMDEIHQKDFVNWLLAQKC
modifications: bridge 16-20; also: ring type not given here
For the molecule B6, the “In vitro Activity Compared to Native Peptide (%) vs. Glucagon” value in the experiment with human GCG receptor is less than 0.1%. The “In vitro Activity Compared to Native Peptide (%) vs. GIP” value with human GIP receptor was found to be 10.4%. Further, the “In vitro Activity Compared to Native Peptide (%) vs. GLP-1” value in the experiment with human GLP-1 receptor came to 24.5%.

B7: triple agonist of SEQ ID NO: 28 (peptide)
peptide: H[Aib]QGTFTSDYSKYLDEKRAQEFVCWLLAQKGKKNDWKHNIT
For B7, the “In vitro Activity Compared to Native Peptide (%) vs. Glucagon” value with human GCG receptor turned out to be 1.6%. Moreover, in the experiment with human GIP receptor, the “In vitro Activity Compared to Native Peptide (%) vs. GIP” value is less than 0.1%. Moreover, the “In vitro Activity Compared to Native Peptide (%) vs. GLP-1” value in the experiment with human GLP-1 receptor was determined as 17.2%.

B8: triple agonist of SEQ ID NO: 30 (peptide)
peptide: H[Aib]QGTFTSDYSKYLDEKAQKEFVQWLLDTC
modifications: bridge 16-20
With B8, in the experiment with human GCG receptor, the “In vitro Activity Compared to Native Peptide (%) vs. Glucagon” value was determined as 0.7%. In addition, the “In vitro Activity Compared to Native Peptide (%) vs. GIP” value with human GIP receptor was found to be 0.8%. In the experiment with human GLP-1 receptor, the “In vitro Activity Compared to Native Peptide (%) vs. GLP-1” value was 142%.

The values above are taken from patent publication US20230118307A1, “THERAPEUTIC USE OF LONG-ACTING CONJUGATE OF TRIPLE AGONIST HAVING ACTIVITIES TO ALL OF GLUCAGON/GLP-1/GIP RECEPTORS FOR LUNG DISEASE” (HANMI PHARM. CO., LTD., priority 2020, published 2023).
